Target: des(methyl) spinach Rubisco (ribulose-1,5-bisphosphate carboxylase-oxygenase holoenzyme) (UniProt P00875)

wild-type pea Rubisco large subunit epsilon-N-methyltransferase (pea Rubisco LSMT)
carboxylase activity at saturating and low CO2: showed no difference in activity between native Rubisco and Rubisco with bound pea Rubisco LSMT alone

From patent publication US20090070901
